Values belong to the binder of their own block, whether it stands above or below them.
B1: FLI1, untagged (other, UniProt Q01543 1-452, looked up)
chain: MDGTIKEALSVVSDDQSLFDSAYGAAAHLPKADMTASGSPDYGQPHKINPLPPQQEWINQPVRVNVKREYDHMNGSRESPVDCSVSKCSKLVGGGESNPMNYNSYMDEKNGPPPPNMTTNERRVIVPADPTLWTQEHVRQWLEWAIKEYSLMEIDTSFFQNMDGKELCKMNKEDFLRATTLYNTEVLLSHLSYLRESSLLAYNTTSHTDQSSRLSVKEDPSYDSVRRGAWGNNMNSGLNKSPPLGGAQTISKNTEQRPQPDPYQILGPTSSRLANPGSGQIQLWQFLLELLSDSANASCITWEGTNGEFKMTDPDEVARRWGERKSKPNMNYDKLSRALRYYYDKNIMTKVHGKRYAYKFDFHGIAQALQPHPTESSMYKYPSDISYMPSYHAHQQKVNFVPPHPSSMPVTSSSFFGAASQYWTSPTGGIYPNPNVPRHPNTHVPSHLGSYY
notes: Stands for endogenous FLI1 (HEK-293T, A673) in co-immunoprecipitation and PLA, and for FLI1 from an expression vector in the reporter assays; also called endogenous FLI1

Experiments:
[1] = molecular target: T1, glucocorticoid receptor (GR), untagged (human, UniProt P04150 1-777); assay: cell-based or functional assay
T1 sequence (looked up): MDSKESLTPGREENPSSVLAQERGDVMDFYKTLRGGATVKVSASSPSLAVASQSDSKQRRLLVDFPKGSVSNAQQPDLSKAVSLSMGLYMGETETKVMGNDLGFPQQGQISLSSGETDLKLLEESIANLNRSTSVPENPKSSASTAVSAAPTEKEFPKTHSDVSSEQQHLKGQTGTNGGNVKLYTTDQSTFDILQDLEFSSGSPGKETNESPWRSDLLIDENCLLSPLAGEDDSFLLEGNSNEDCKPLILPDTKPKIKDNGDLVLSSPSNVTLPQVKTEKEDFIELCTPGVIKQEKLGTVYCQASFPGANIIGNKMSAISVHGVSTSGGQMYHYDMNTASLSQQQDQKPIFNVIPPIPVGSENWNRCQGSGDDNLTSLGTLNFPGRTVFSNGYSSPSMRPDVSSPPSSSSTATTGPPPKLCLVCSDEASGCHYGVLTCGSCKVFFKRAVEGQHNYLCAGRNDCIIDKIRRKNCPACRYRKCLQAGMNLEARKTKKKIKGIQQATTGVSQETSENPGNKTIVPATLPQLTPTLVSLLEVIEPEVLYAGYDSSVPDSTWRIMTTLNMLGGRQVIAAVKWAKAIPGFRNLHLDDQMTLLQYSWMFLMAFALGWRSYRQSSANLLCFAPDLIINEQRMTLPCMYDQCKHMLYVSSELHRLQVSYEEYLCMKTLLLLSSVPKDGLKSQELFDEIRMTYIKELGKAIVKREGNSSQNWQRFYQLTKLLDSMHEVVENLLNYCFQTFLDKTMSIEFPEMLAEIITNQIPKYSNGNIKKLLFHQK

[2] = molecular target: T2, GR NTD+DBD-Gluc2 (NTD and DBD of GR fused to Gluc2) (human, UniProt P04150 1-486); assay: co-immunoprecipitation with anti-Gluc antibody, immunoblot for endogenous FLI1, HEK-293 cells (FIG. 3D)
T2 construct: domain: NTD+DBD;range 94-169; not shown: Gaussia luciferase (Gluc), carboxyl-terminal fragment Gluc2, amino acids 94-169
T2 sequence (looked up): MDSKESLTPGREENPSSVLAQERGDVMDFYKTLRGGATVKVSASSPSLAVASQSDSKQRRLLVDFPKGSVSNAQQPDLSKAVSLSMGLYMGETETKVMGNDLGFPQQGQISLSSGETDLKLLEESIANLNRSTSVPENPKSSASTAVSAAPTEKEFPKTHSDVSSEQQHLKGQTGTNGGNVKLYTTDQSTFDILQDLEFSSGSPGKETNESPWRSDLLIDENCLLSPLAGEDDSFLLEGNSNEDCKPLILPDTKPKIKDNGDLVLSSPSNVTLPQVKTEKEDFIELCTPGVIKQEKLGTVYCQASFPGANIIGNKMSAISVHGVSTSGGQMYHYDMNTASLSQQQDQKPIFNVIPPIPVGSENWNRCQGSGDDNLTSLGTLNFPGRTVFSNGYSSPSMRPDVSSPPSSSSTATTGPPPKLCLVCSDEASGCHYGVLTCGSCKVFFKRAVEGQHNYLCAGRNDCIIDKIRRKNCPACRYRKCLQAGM
Method: (§1) HEK-293T cells (6×10³) were seeded in each well of 96-well plates. […] Cells were lysed after 24 hours and processed for co-immunoprecipitation assays, in which the Gluc protein was immunoprecipitated using a specific antibody. […] Blots are representative of three or more biological replicates. […] Similarly, the input of recombinant proteins is shown in the middle panels of C and D. Both molecular weights and relative quantities of individual Gluc fusion proteins are shown by means of immunoblotting with an antibody to Gluc. Individual fusion proteins are identified by numbers and their molecular weights are calculated below each panel.

FLI1, untagged = molecular target: B1; assay: as above
Method: as §1

Gluc1-PU.1 [3] = molecular target: T3, Gluc1-PU.1 (UniProt P17947-2 1-271); assay: PCA (split Gaussia luciferase) in HEK-293 cells, DEX 1.0 µM 60 min (FIG. 1B)
T3 construct: not shown: Gaussia luciferase (Gluc), amino-terminal fragment Gluc1, amino acids 1-93
Description: EB, empty beads; C, solvent control. Images shown are representative of three biological replicates.
The resulting luminescence was normalized to the signal associated with cells treated with vehicle only.

Gluc1-PU.1 [4] = molecular target: T3, Gluc1-PU.1; assay: PCA in HEK-293T cells, estradiol 10 nM 60 min (FIG. 8C)
Method: (A) HEK-293T cells (6×10³) were seeded in 96-well plates. […] (B and C) HEK-293T cells (6×10³) were seeded in 96-well plates. […] Cells were then lysed and luminescence was determined.

- binding result (FLI1, untagged): no binding
B2: GR NTD-Gluc2 (NTD of GR fused to Gluc2) (other, UniProt P04150 1-420, looked up, not shown: large carriers)
chain: MDSKESLTPGREENPSSVLAQERGDVMDFYKTLRGGATVKVSASSPSLAVASQSDSKQRRLLVDFPKGSVSNAQQPDLSKAVSLSMGLYMGETETKVMGNDLGFPQQGQISLSSGETDLKLLEESIANLNRSTSVPENPKSSASTAVSAAPTEKEFPKTHSDVSSEQQHLKGQTGTNGGNVKLYTTDQSTFDILQDLEFSSGSPGKETNESPWRSDLLIDENCLLSPLAGEDDSFLLEGNSNEDCKPLILPDTKPKIKDNGDLVLSSPSNVTLPQVKTEKEDFIELCTPGVIKQEKLGTVYCQASFPGANIIGNKMSAISVHGVSTSGGQMYHYDMNTASLSQQQDQKPIFNVIPPIPVGSENWNRCQGSGDDNLTSLGTLNFPGRTVFSNGYSSPSMRPDVSSPPSSSSTATTGPPPKL
notes: domain: NTD;range 94-169

- binding result (Gluc1-PU.1 [3]): binds
B3: GR-Gluc2 (full-length glucocorticoid receptor fused at its carboxyl terminus to Gluc2) (receptor, UniProt P04150 1-777, looked up)
chain: MDSKESLTPGREENPSSVLAQERGDVMDFYKTLRGGATVKVSASSPSLAVASQSDSKQRRLLVDFPKGSVSNAQQPDLSKAVSLSMGLYMGETETKVMGNDLGFPQQGQISLSSGETDLKLLEESIANLNRSTSVPENPKSSASTAVSAAPTEKEFPKTHSDVSSEQQHLKGQTGTNGGNVKLYTTDQSTFDILQDLEFSSGSPGKETNESPWRSDLLIDENCLLSPLAGEDDSFLLEGNSNEDCKPLILPDTKPKIKDNGDLVLSSPSNVTLPQVKTEKEDFIELCTPGVIKQEKLGTVYCQASFPGANIIGNKMSAISVHGVSTSGGQMYHYDMNTASLSQQQDQKPIFNVIPPIPVGSENWNRCQGSGDDNLTSLGTLNFPGRTVFSNGYSSPSMRPDVSSPPSSSSTATTGPPPKLCLVCSDEASGCHYGVLTCGSCKVFFKRAVEGQHNYLCAGRNDCIIDKIRRKNCPACRYRKCLQAGMNLEARKTKKKIKGIQQATTGVSQETSENPGNKTIVPATLPQLTPTLVSLLEVIEPEVLYAGYDSSVPDSTWRIMTTLNMLGGRQVIAAVKWAKAIPGFRNLHLDDQMTLLQYSWMFLMAFALGWRSYRQSSANLLCFAPDLIINEQRMTLPCMYDQCKHMLYVSSELHRLQVSYEEYLCMKTLLLLSSVPKDGLKSQELFDEIRMTYIKELGKAIVKREGNSSQNWQRFYQLTKLLDSMHEVVENLLNYCFQTFLDKTMSIEFPEMLAEIITNQIPKYSNGNIKKLLFHQK
notes: domain: full length;range 94-169; Expressed in HEK-293/HEK-293T cells by transfection; also called Gluc2-GR; not shown: Gaussia luciferase (Gluc), carboxyl-terminal fragment Gluc2, amino acids 94-169

Further lines, the binder ahead of its results:

Binder: B1
- GRE activity, luciferase reporter (FIG. 4D) [1]: 17 fold
- GRE activity, luciferase reporter, endogenous GR with DEX (FIG. 4E) [1]: ~2 fold
- binding result [2]: no binding

B4: ERα-Gluc2 (estrogen receptor alpha fused to Gluc2) (receptor, UniProt P03372 1-595, looked up)
chain: MTMTLHTKASGMALLHQIQGNELEPLNRPQLKIPLERPLGEVYLDSSKPAVYNYPEGAAYEFNAAAAANAQVYGQTGLPYGPGSEAAAFGSNGLGGFPPLNSVSPSPLMLLHPPPQLSPFLQPHGQQVPYYLENEPSGYTVREAGPPAFYRPNSDNRRQGGRERLASTNDKGSMAMESAKETRYCAVCNDYASGYHYGVWSCEGCKAFFKRSIQGHNDYMCPATNQCTIDKNRRKSCQACRLRKCYEVGMMKGGIRKDRRGGRMLKHKRQRDDGEGRGEVGSAGDMRAANLWPSPLMIKRSKKNSLALSLTADQMVSALLDAEPPILYSEYDPTRPFSEASMMGLLTNLADRELVHMINWAKRVPGFVDLTLHDQVHLLECAWLEILMIGLVWRSMEHPGKLLFAPNLLLDRNQGKCVEGMVEIFDMLLATSSRFRMMNLQGEEFVCLKSIILLNSGVYTFLSSTLKSLEEKDHIHRVLDKITDTLIHLMAKAGLTLQQQHQRLAQLLLILSHIRHMSNKGMEHLYSMKCKNVVPLYDLLLEMLDAHRLHAPTSRGGASVEETDQSHLATAGSTSSHSLQKYYITGEAEGFPATV
notes: not shown: Gaussia luciferase (Gluc), carboxyl-terminal fragment Gluc2, amino acids 94-169
- binding result (Gluc1-PU.1 [4]): no binding

From US20210275545A1 (YEDA RESEARCH AND DEVELOPMENT, published 2021)
